Reference: patent US20210198377A1 (XDCEXPLORER SHANGHAI, published 2021)
Numbering of substitutions follows the chain as printed.

T1: human TPBG (full length, on cells) (human, UniProt Q13641 32-420)
T1 sequence (looked up): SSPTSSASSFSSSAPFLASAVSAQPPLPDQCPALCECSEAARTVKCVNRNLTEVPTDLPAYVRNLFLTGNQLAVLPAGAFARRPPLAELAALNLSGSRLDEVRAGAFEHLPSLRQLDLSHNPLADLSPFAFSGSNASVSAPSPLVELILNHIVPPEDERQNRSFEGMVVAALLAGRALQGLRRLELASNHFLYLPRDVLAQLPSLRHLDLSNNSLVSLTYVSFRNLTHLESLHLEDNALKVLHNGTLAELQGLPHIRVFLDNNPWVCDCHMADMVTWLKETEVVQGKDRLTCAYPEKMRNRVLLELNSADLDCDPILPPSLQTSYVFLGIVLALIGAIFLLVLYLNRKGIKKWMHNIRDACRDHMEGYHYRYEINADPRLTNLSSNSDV

B1: 103E2E9C2-MMAF (antibody, DAR 8, V domains shown)
VH: EVQLQQSGPVLVKPGASVKMSCEASGYSFIDYYMSWVKQSRGRSLEWIGVFNPYSGEIIYNQKFKGKATLTVDKSSSTAYMELSSLTSEDSGVYSCARLRISYYAIDYWGQGTSVAVSS
VL: ENVLTQSPAIMSASPGEKVTMTCRATSSVSSGHFHWYQQKSGASPKVWIYSTSNLASGVPARFSGSGSGTSFSLTISSVEAEDVATYFCQQYSGYPLTFGGGTKLEIK
modifications: MC-MMAF on cysteines after TCEP reduction, sites not stated
B2: 37H9C5G2-MMAF (antibody, DAR 8, V domains shown)
VH: QVQLQQSDAELVRPGASVKMSCKVSGYTFTDHTIHWMKQRPEQGLEWIGYIYPRDGSGTYNEKFKGKATLTADKSSSTAYMQLNSLTSEDSAVYFCARDGSSHYWYFDVWGTGTTVTVSS
VL: DIQMTQSPASLSASVGETVTITCRASEIIYNYLAWYQQKQGKSPQLLVYNAKTLAEGVPSRFSGSYSGTQFSLNINSLQSEDFGIYYCQHHHDTPLTFGAGTKLDLK
modifications: MC-MMAF on cysteines after TCEP reduction, sites not stated
B3: 12B12C7C3-MMAF (antibody, DAR 8, V domains shown)
VH: DVQLVESGGGLVQPGGSRKLSCAASGFTFSNFGMHWVRQAPEKGLEWVAYISSGSTSFYYADTVKGRFTISRDNPKNTLFLQMTSLRSEDTAMYYCSRTNSLLRGFFDAWGAGTTVTVSS
VL: DIVLTQSPASLAVSLGQRATISCRASQSVSSSSYTYLHWYQQKPGQPPKLLIKSASNLESGVPARFSGTGSGTDFTLNIHPVEEEDTATYYCQHSWEIPLTFGAGTKLELK
modifications: MC-MMAF on cysteines after TCEP reduction, sites not stated
B4: Chimeric Antibody 12B12-DM1 (antibody, human IgG1, DAR about 3, V domains shown)
VH: B3 VH
VL: B3 VL
modifications: SMCC-DM1, sites not stated
B5: Chimeric Antibody 12B12-MMAE (antibody, human IgG1, DAR about 3, V domains shown)
VH: B3 VH
VL: B3 VL
modifications: MC-VC-PAB-MMAE on cysteines after TCEP reduction, sites not stated
B6: Chimeric Antibody 12B12 (antibody, V domains shown)
VH: B3 VH
VL: B3 VL
B7: 36A10D8B12-MMAF (antibody, DAR 8, V domains shown)
VH: DVQLQESGPGMVKPSQSLSLTCTVTGYSITSGYDWHWIRHFPGNKLEWMGYISYSGNTNYNPSLKSRISITHNTSKNHFFLRLNSVTTEDTATYYCARGYGNWDAMDYWGQGTSVTVSS
VL: DIVMTQSQKFMSTSVGDRVSVTCKASQIVDTNVAWYQQKPGQSPKALISSASYRYSGVPDRFTGSGSGTDFTLTISNVQSEDLAEYFCQQYNSYPLTFGAGTKLELT
modifications: MC-MMAF on cysteines after TCEP reduction, sites not stated
B8: 5G4H10G5-MMAF (antibody, DAR 8, V domains shown)
VH: EVQLVESGGDLVQPGGSLKLFCAASGFTFSTYGLSWVRQTPDKRLELVATITNNDGSAYYPDSVKGRFTISRDKAKNTLFLQMTSLKSEDTAMYYCARETGFGSSYLFDYWGQGTLVTVSA
VL: NIVMTQTPKFLLVSAGDRVTITCKASQSVSNDVAWYQQKPGQSPKLLIYFATNRYTGVPNRFTGSGYGTEFTFTISSVQAEDLAVYFCQQDYSSPTFGGGTKLEIK
modifications: MC-MMAF on cysteines after TCEP reduction, sites not stated
B9: Chimeric Antibody 28D4 (antibody, V domains shown)
VH: DVQLVESGGGLVRPGGSLKLSCAASGFTFSNYVMSWARQSPEKRLEWVAEISTGGSHTYYSDTVTGRFTISRDNAKKALYLEMSSLRSEDTAIYYCIMFYYGSSYSMDYWGQGTSVTVSS
VL: DIQMTQSTSSLSASLGDRITISCRASQDIRNYLNWYQQKPDGTVKLLIYHTSRLHSGVPSRFSGSGSGTDYSLTISNLEQEDIATYFCQQGDTLPLTFGAGTRLELK
B10: 28D4E6A9-MMAF (antibody, DAR 8, V domains shown)
VH: B9 VH
VL: B9 VL
modifications: MC-MMAF on cysteines after TCEP reduction, sites not stated
B11: 99E12C7H1-MMAF (antibody, DAR 8, V domains shown)
VH: QIQLVQSGPELKKPGETVKISCKPSGYTFTAYGLSWVKQAPGQGFQWMGWINTYSGVPTYTDDFKGRFAFSLETSAGTASLQITNLKNEDTATYFCARSSIPPFEYWGPGTTLTVSS
VL: SFVMTQSPKFLLVSVGDRVTITCKASQSVSNDVAWYQQKPGQPPRVLIYFASNRYTGVPDRFTGSGYGTDFTFTISTVQAEDLALYFCQQDYSSPWTFGGGTKLEIK
modifications: MC-MMAF on cysteines after TCEP reduction, sites not stated
B12: 39A11G5F2-MMAF (antibody, DAR 8, V domains shown)
VH: QVQLQQSGAELMKPGASMRLSCKATGYTFTGYWLEWIKRRPGHGLEWIGEILPGRGSTNYNEKFKGKATFTAETSSNTAYMQLTSLTTEDSAIYYCARGGRDFDNWGQGTTLTVSS
VL: DIQMTQSTSSLSASLGDRVTISCSASQGINNHLNWYQQKPDGTVKLLIYYTSSLHSGVPSRFSGSGSGTDYSLTISNLEPEDIAIYYCQQFSKLPYTFGGGTKVEMK
modifications: MC-MMAF on cysteines after TCEP reduction, sites not stated
B13: 52C9E9F6-MMAF (antibody, DAR 8, V domains shown)
VH: QVQLQQSGAELMKPGASVKLSCKATGYTFTGYWIEWIKQRPGHGLEWIGEILPGRGSTDYNEKFKGKATFTADTSSNTAYMQLSSLTTEDSAIYYCTRGRLDFTYWGQGTLVTVSA
VL: B12 VL with S7T, N30R, H32Y, I85T, F91Y, L94V, Y96W, V104L, M106I
modifications: MC-MMAF on cysteines after TCEP reduction, sites not stated
B14: 106D5G3D10-MMAF (antibody, DAR 8, V domains shown)
VH: EVQLVESGGGLVKPGGSLKLSCAASGFTFSDYGMHWVRQAPEKGLEWVGYISSGTYVVYYADTVKGRFTISRDNAKNTLFLQMTSLRSEDTAIYYCSTYGSNPFDYWGQGTTLTVSS
VL: QLVLTQSPAIMSASPGEKVTITCSATSSVSSMHWFQQKPVTSPKLWIYSTSNLASGVPTRFSGSGSGTSYSLTISRMEAEDAATYYCQQRSGYPPIFTFGSGTKLEIK
modifications: MC-MMAF on cysteines after TCEP reduction, sites not stated

Tests used:
Test in all cases: cell-based or functional assay
[1] = molecular target: T1, human TPBG (full length, on cells)
[2] = molecular target: T1, human TPBG (full length, on cells); remark: listed apart in the source
[3] = molecular target: T1, human TPBG (full length, on cells); remark: listed apart in the source

Binder	EC50 of cytotoxicity on TPBG-positive NCI-H1568 cells (CellTiter-Glo) [1]	also measured
B1	0.135 nM	
B2	0.12 nM	
B3	0.042 nM	
B4		IC50 of cytotoxicity on TPBG-positive NCI-H1299 cells (CellTiter-Glo) [2]: 10.4 nM; IC50 of cytotoxicity on TPBG-positive NCI-H1568 cells (CellTiter-Glo) [2]: 1.27 nM; IC50 of cytotoxicity on recombinant 293-hTPBG cells (CellTiter-Glo) [3]: 0.154 nM
B5		IC50 of cytotoxicity on TPBG-positive NCI-H1299 cells (CellTiter-Glo) [2]: > 100 nM; IC50 of cytotoxicity on TPBG-positive NCI-H1568 cells (CellTiter-Glo) [2]: > 100 nM; IC50 of cytotoxicity on recombinant 293-hTPBG cells (CellTiter-Glo) [3]: 0.033 nM
B6		IC50 of cytotoxicity on recombinant 293-hTPBG cells (CellTiter-Glo) [3]: 13.6 nM
B7	0.066 nM	
B8	0.626 nM	
B9		IC50 of cytotoxicity on recombinant 293-hTPBG cells (CellTiter-Glo) [3]: 1.14 nM
B10	0.038 nM	
B11	0.844 nM	
B12	0.285 nM	
B13	1.49 nM	
B14	0.208 nM	
